Source: US20170275666A1, “Methods for Preparing Rebaudioside I and Uses” (The Coca-Cola Company, priority 2014, published 2017)

Assay: Catalytic reaction with in-vivo produced UGT76G1, stevioside to rebaudioside A
Type: biochemical
Details: 0.5 mM Stevioside, 2.5 mM UDP-glucose, thawed lysate, 30° C., HPLC (CAD)
Description: The total volume of the reaction was 5.0 mL with the following composition: 50 mM sodium phosphate buffer pH 7.2, 3 mM MgCl2, 2.5 mM UDP-glucose, 0.5 mM Stevioside and 500 μL of UGT76G1 thawed lysate. The reactions were run at 30° C. on an orbitary shaker at 135 rpm. For each sample, 460 μL of the reaction mixture was quenched with 40 μL of 2N H2SO4 and 420 μL of methanol/water (6/4). The samples were immediately centrifuged and kept at 10° C. before analysis by HPLC (CAD).

B1: UGT76G1: UDP-glycosyltransferase from Stevia rebaudiana (Genbank AAR06912.1), in-vivo produced lysate (protein, UniProt Q6VAB4 1-458, looked up)
UDP-glycosyltransferase 76G1: MENKTETTVRRRRRIILFPVPFQGHINPILQLANVLYSKGFSITIFHTNFNKPKTSNYPHFTFRFILDNDPQDERISNLPTHGPLAGMRIPIINEHGADELRRELELLMLASEEDEEVSCLITDALWYFAQSVADSLNLRRLVLMTSSLFNFHAHVSLPQFDELGYLDPDDKTRLEEQASGFPMLKVKDIKSAYSNWQILKEILGKMIKQTKASSGVIWNSFKELEESELETVIREIPAPSFLIPLPKHLTASSSSLLDHDRTVFQWLDQQPPSSVLYVSFGSTSEVDEKDFLEIARGLVDSKQSFLWVVRPGFVKGSTWVEPLPDGFLGERGRIVKWVPQQEVLAHGAIGAFWTHSGWNSTLESVCEGVPMIFSDFGLDQPLNARYMSDVLKVGVYLENGWERGEIANAIRRVMVDEEGEYIRQNARVLKQKADVSLMKGGSSYESLESLVSYISSL
modifications: cell lysate
notes: UDP-glycosyltransferase from Stevia rebaudiana (Genbank AAR06912.1), in-vivo produced lysate
  conversion of stevioside to rebaudioside A: almost complete conversion
